Patent EP4759829A1 (The University of Tokyo, dated 2025)
“And” between values parts separate entries of the source, which are not always exact repeats. Identical values can stand only once. Values belong to the binder of their own block, whether it stands above or below them.

How the values were obtained:
[1] = biological target: T1, human HVEM on cells (HEK293T cells expressing HVEM; Mesenchymal subtype GBM cells) (human, UniProt Q92956 39-283); experiment: cell-based or functional assay
T1 sequence (looked up): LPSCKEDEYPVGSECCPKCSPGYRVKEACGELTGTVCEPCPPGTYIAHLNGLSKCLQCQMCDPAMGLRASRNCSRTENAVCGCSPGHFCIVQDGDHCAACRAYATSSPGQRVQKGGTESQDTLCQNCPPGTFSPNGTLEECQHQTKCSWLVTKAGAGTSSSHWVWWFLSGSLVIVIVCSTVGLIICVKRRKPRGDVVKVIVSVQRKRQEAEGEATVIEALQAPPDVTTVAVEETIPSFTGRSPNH

[2] = biological target: T2, human HVEM extracellular domain recombinant protein (Sino Biological Japan Inc. 10334-H08H) (human, UniProt Q92956 39-202); experiment: SPR (BIAcore T200), antibody captured by anti-human IgG on CM5 chip, HVEM extracellular domain as analyte
T2 construct: extracellular domain; Bought protein
T2 sequence (looked up): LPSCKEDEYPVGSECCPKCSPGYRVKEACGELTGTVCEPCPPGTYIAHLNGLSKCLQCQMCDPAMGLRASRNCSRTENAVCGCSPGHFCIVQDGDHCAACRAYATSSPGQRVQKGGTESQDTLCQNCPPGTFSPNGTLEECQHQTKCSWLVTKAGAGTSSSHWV

[3] = biological target: T1, human HVEM on cells (HEK293T cells …); experiment: cell ELISA on fixed HEK293T cells expressing HVEM, anti-His-HRP detection
[4] = biological target: T2, human HVEM extracellular domain …; experiment: SPR (BIAcore T200), biotinylated VHH-3-Avitag on SA chip, HVEM extracellular domain as analyte

B1: humanized anti-human HVEM antibody (HVR80) conjugated with monomethyl auristatin E (MMAE) (other)
chain: EVQLVESGGGLVQPGGSLRLSCAASGSIGSIHRWDWYRQAPGKQREWVATLNSEGGPTYADSVEGRFTISRDNSKNTLYLQMNSLRPEDTAVYRCAARTVPFEYWGQGTLVTVSSGPPCPPCPAPEFLGGPSVFLFPPKPKDTLMISRTPEVTCVVVDVSQEDPEVQFNWYVDGVEVHNAKTKPREEQFNSTYRVVSVLTVLHQDWLNGKEYKCKVSNKGLPSSIEKTISKAKGQPREPQVYTLPPSQEEMTKNQVSLTCLVKGFYPSDIAVEWESNGQPENNYKTTPPVLDSDGSFFLYSRLTVDKSRWQEGNVFSCSVMHEALHNHYTQKSLSLSLGK
modifications: conjugated with monomethyl auristatin E (MMAE) using Glyclick ADC MMAE (Genovis AB); site not stated
- IC50 of cell viability of HEK293T-HVEM cells, 3 days [1]: 70 ng/ml and 0.9 nM

B2: humanized anti-human HVEM antibody (HVR80) conjugated with PNU (other)
chain: EVQLVESGGGLVQPGGSLRLSCAASGSIGSIHRWDWYRQAPGKQREWVATLNSEGGPTYADSVEGRFTISRDNSKNTLYLQMNSLRPEDTAVYRCAARTVPFEYWGQGTLVTVSSGPPCPPCPAPEFLGGPSVFLFPPKPKDTLMISRTPEVTCVVVDVSQEDPEVQFNWYVDGVEVHNAKTKPREEQFNSTYRVVSVLTVLHQDWLNGKEYKCKVSNKGLPSSIEKTISKAKGQPREPQVYTLPPSQEEMTKNQVSLTCLVKGFYPSDIAVEWESNGQPENNYKTTPPVLDSDGSFFLYSRLTVDKSRWQEGNVFSCSVMHEALHNHYTQKSLSLSLGK
modifications: conjugated with PNU using Glyclick ADC PNU (Genovis AB); site not stated
- IC50 of cell viability of HEK293T-HVEM cells, 3 days [1]: 30 ng/ml and 0.4 nM

- Kd [2]: 59 nM
B3: humanized anti-human HVEM antibody (HVR80) (Fc fusion)
chain: EVQLVESGGGLVQPGGSLRLSCAASGSIGSIHRWDWYRQAPGKQREWVATLNSEGGPTYADSVEGRFTISRDNSKNTLYLQMNSLRPEDTAVYRCAARTVPFEYWGQGTLVTVSSGPPCPPCPAPEFLGGPSVFLFPPKPKDTLMISRTPEVTCVVVDVSQEDPEVQFNWYVDGVEVHNAKTKPREEQFNSTYRVVSVLTVLHQDWLNGKEYKCKVSNKGLPSSIEKTISKAKGQPREPQVYTLPPSQEEMTKNQVSLTCLVKGFYPSDIAVEWESNGQPENNYKTTPPVLDSDGSFFLYSRLTVDKSRWQEGNVFSCSVMHEALHNHYTQKSLSLSLGK
notes: Printed molecular weight about 77,000

- EC50 [3]: 1.94 nM
B4: alpaca anti-human HVEM antibody (VHH-3), 6×His-tagged (VHH)
VHH: QVQLVESGGGSVQPGGSLRLSCAASGSIGSIHRWDWYRLCPGKQREWVATLNSEGGPTYADSVEGRFTISRDNAKNMVYLQMNSLKPEDTAVYRCSARTVPFEYWGRGTQVTVSS
notes: also called 6×His-tagged VHH-3 antibody; not shown: 6×His tag

- Kd [4]: 19 nM
B5: alpaca anti-human HVEM antibody (VHH-3) tagged C-terminally with biotinylated Avitag (VHH)
VHH: QVQLVESGGGSVQPGGSLRLSCAASGSIGSIHRWDWYRLCPGKQREWVATLNSEGGPTYADSVEGRFTISRDNAKNMVYLQMNSLKPEDTAVYRCSARTVPFEYWGRGTQVTVSS
modifications: biotinylated Avitag at the C-terminus
notes: not shown: C-terminal Avitag (biotinylated)
